Source: patent US20140303084
Numbering of substitutions follows the chain as printed.

Legend:
Ac-KLTCLASYCWLF = system: T1, Ac-KLTCLASYCWLF
T1 sequence: KLTCLASYCWLF

[1] = system: T2, C(N-PEG5kmaleimide)-PEG4-LVPR-PEG4-rRAPGKLTCLASYCWLFWTGIA
T2 sequence: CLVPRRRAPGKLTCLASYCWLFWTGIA

[2] = system: T3, CGGGLVPRGGG-RRAPGKLT-Asp-LASY-Lys-WLFWTGIA
T3 sequence: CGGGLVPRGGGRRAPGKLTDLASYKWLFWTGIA

DAKVAKLRCLGSQCWLLQYAPG = system: T4, DAKVAKLRCLGSQCWLLQYAPG
T4 sequence: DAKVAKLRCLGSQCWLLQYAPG

Dpr-LTCLASYCWLF = system: T5, Dpr-LTCLASYCWLF
T5 sequence: XLTCLASYCWLF

K-k-MeLeu-TCLASYCWLF = system: T6, K-k-MeLeu-TCLASYCWLF
T6 sequence: KKLTCLASYCWLF

KATCLASYCWLF = system: T7, KATCLASYCWLF
T7 sequence: KATCLASYCWLF

KLTALASYCWLF = system: T8, KLTALASYCWLF
T8 sequence: KLTALASYCWLF

KLTCLASYAWLF = system: T9, KLTCLASYAWLF
T9 sequence: KLTCLASYAWLF

KLTCLASYCWLA = system: T10, KLTCLASYCWLA
T10 sequence: KLTCLASYCWLA

KLTCLASYCWLFK = system: T11, KLTCLASYCWLFK
T11 sequence: KLTCLASYCWLFK

KLTCLASYCWLf = system: T12, KLTCLASYCWLf
T12 sequence: KLTCLASYCWLF

KLTCLATYCWLF = system: T13, KLTCLATYCWLF
T13 sequence: KLTCLATYCWLF

KLTCLVSYCWLF = system: T14, KLTCLVSYCWLF
T14 sequence: KLTCLVSYCWLF

KLTCRASYCQLF = system: T15, KLTCRASYCQLF
T15 sequence: KLTCRASYCQLF

[3] = system: T16, LYPRLYTPGS RRAYG KLTCLASYCWLFWTGIA
T16 sequence: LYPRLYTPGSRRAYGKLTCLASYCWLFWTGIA

Lys(Me)-LTCLASYCWLF = system: T17, Lys(Me)-LTCLASYCWLF
T17 sequence: KLTCLASYCWLF

[4] = system: T18, Lys(palmitoyl)-PEG16-Lys(PEG2-Biotin)-PEG16-rRAPGKLTCLASYCWLFWTGIA
T18 sequence: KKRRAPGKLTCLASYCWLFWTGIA

MAGMLKLTCFASYCGLFPLVSS = system: T19, MAGMLKLTCFASYCGLFPLVSS
T19 sequence: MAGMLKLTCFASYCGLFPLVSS

NGGMQKPACLASQCWLFANPLP = system: T20, NGGMQKPACLASQCWLFANPLP
T20 sequence: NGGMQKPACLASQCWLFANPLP

Orn-LTCLASYCWLF = system: T21, Orn-LTCLASYCWLF
T21 sequence: XLTCLASYCWLF

[5] = system: T22, PARGKERELM RRAPG KLTCLASYCWLFWTGIA
T22 sequence: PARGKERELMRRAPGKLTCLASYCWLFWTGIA

[6] = system: T23, PRIRTVGPGSRSASGKLSCLASYCWLFWTGIA
T23 sequence: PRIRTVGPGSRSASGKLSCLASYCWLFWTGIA

[7] = system: T24, PRSRTVGPGSRSASGKLTCLASYCWLFWTGIA
T24 sequence: T23 sequence with I3S, S18T

QAKMLKLTCLASYCWLFWVTRS = system: T25, QAKMLKLTCLASYCWLFWVTRS
T25 sequence: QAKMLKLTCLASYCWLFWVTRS

RGRSAKLRCLASYCWLFFGVIL = system: T26, RGRSAKLRCLASYCWLFFGVIL
T26 sequence: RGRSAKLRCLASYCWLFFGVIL

[8] = system: T27, RRAPG-MeLys-LTCLASYCWLFWTGIA
T27 sequence: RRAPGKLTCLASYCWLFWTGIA

[9] = system: T28, RRAPGKLQCLASYCWLFWTG-Nle-A
T28 sequence: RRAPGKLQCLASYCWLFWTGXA

RRAPGKLQCLASYCWLFWTGI = system: T29, RRAPGKLQCLASYCWLFWTGI
T29 sequence: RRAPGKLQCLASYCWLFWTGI

RRAPGKLQCLASYCWLFWTG = system: T30, RRAPGKLQCLASYCWLFWTG
T30 sequence: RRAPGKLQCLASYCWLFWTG

RRAPGKLQCLASYCWLFWTKIA = system: T31, RRAPGKLQCLASYCWLFWTKIA
T31 sequence: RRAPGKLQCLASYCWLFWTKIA

RRAPGKLQCLASYCWLFWT = system: T32, RRAPGKLQCLASYCWLFWT
T32 sequence: RRAPGKLQCLASYCWLFWT

[10] = system: T33, RRAPGKLT-Asp-LASY-Orn-WLFWTGIA-CONH2
T33 sequence: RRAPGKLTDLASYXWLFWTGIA

[11] = system: T34, RRAPGKLTCLASYCWLF QTGWA YWGYRQHPGS
T34 sequence: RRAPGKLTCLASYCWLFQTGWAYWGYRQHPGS

[12] = system: T35, RRAPGKLTCLASYCWLF RTQIA TPESEYRQQA
T35 sequence: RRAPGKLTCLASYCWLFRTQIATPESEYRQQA

[13] = system: T36, RRAPGKLTCLASYCWLF STGVA THANTTATAQ
T36 sequence: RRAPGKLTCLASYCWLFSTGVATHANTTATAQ

[14] = system: T37, RRAPGKLTCLASYCWLF WAVIA PPKVKGTRQS
T37 sequence: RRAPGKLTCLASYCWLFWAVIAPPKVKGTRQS

[15] = system: T38, RRAPGKLTCLASYCWLF WTAVG GQPYMLLAWR
T38 sequence: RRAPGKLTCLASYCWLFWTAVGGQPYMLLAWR

RRAPGKLTCLASYCWLFWTGiA [16] = system: T39, RRAPGKLTCLASYCWLFWTGiA
T39 sequence: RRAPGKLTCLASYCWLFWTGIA

RRAPGKLTCLASYCWLFwTGIA [17] = system: T40, RRAPGKLTCLASYCWLFwTGIA
T40 sequence: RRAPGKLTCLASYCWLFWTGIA

RRApGKLTCLASYCWLFWTGIA [18] = system: T41, RRApGKLTCLASYCWLFWTGIA
T41 sequence: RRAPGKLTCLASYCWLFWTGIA

RRKPGKLQCLASYCWLFWTGIA = system: T42, RRKPGKLQCLASYCWLFWTGIA
T42 sequence: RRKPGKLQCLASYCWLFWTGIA

[19] = system: T43, SKAGRPISPDrRAAGKLTCLASYCWLFWTGIA
T43 sequence: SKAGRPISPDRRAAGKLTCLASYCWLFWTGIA

[20] = system: T44, SKQGRPASPDrRAAGKLTCLASYCWLFWTGIA
T44 sequence: T43 sequence with A3Q, I7A

[21] = system: T45, SKQGRPISPDRRAAGKLTCLASYCWLFWTGIA-PEG2-K(PEG2-Biotin)
T45 sequence: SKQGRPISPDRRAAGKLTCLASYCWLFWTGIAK

[22] = system: T46, SKQGRPISPDrRAAGKLTCLAS-NMeTyr-CWLFWTGIA
T46 sequence: T43 sequence with A3Q

[23] = system: T47, TALSRGLVTM RTAPD KLTCLASYCWLFWTGIA
T47 sequence: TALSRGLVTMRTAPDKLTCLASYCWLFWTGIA

compound 20 = system: T48, compound 20
T48 sequence: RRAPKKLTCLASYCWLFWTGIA

compound 2 = system: T49, compound 2
T49 sequence: KLTCLASYCWLF

compound 4 = system: T50, compound 4
T50 sequence: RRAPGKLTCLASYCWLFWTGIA

What does the source list for human Factor IXa?
Vmax, FXa generation assay; (++) means 1-2 (Ac-KLTCLASYCWLF): (++); Vmax, FXa generation assay; (++) means 1-2 [1]: (++); Vmax, FXa generation assay [2]: > 2; Vmax, FXa generation assay; (++) means 1-2 (DAKVAKLRCLGSQCWLLQYAPG): (++); Vmax, FXa generation assay (Dpr-LTCLASYCWLF): > 2; Vmax, FXa generation assay (K-k-MeLeu-TCLASYCWLF): > 3; Vmax, FXa generation assay (KATCLASYCWLF): > 2; Vmax, FXa generation assay; (++) means 1-2 (KLTALASYCWLF): (++); Vmax, FXa generation assay; (++) means 1-2 (KLTCLASYAWLF): (++); Vmax, FXa generation assay (KLTCLASYCWLA): > 3; Vmax, FXa generation assay (KLTCLASYCWLFK): > 3; Vmax, FXa generation assay (KLTCLASYCWLf): > 3; Vmax, FXa generation assay; (++) means 1-2 (KLTCLATYCWLF): (++); Vmax, FXa generation assay (KLTCLVSYCWLF): > 2; Vmax, FXa generation assay (KLTCRASYCQLF): > 2; Vmax, FXa generation assay [3]: > 2; Vmax, FXa generation assay; (++) means 1-2 (Lys(Me)-LTCLASYCWLF): (++); Vmax, FXa generation assay [4]: > 3; Vmax, FXa generation assay; (++) means 1-2 (MAGMLKLTCFASYCGLFPLVSS): (++); Vmax, FXa generation assay; (++) means 1-2 (NGGMQKPACLASQCWLFANPLP): (++); Vmax, FXa generation assay; (++) means 1-2 (Orn-LTCLASYCWLF): (++); Vmax, FXa generation assay [5]: > 3; Vmax, FXa generation assay [6]: > 3; Vmax, FXa generation assay [7]: > 3; Vmax, FXa generation assay (QAKMLKLTCLASYCWLFWVTRS): > 2; Vmax, FXa generation assay (RGRSAKLRCLASYCWLFFGVIL): > 2; Vmax, FXa generation assay; (++) means 1-2 [8]: (++); Vmax, FXa generation assay [9]: > 2; Vmax, FXa generation assay (RRAPGKLQCLASYCWLFWTGI): > 2; Vmax, FXa generation assay (RRAPGKLQCLASYCWLFWTG): > 2; Vmax, FXa generation assay; (++) means 1-2 (RRAPGKLQCLASYCWLFWTKIA): (++); Vmax, FXa generation assay (RRAPGKLQCLASYCWLFWT): > 2; Vmax, FXa generation assay [10]: > 2; Vmax, FXa generation assay [11]: > 2; Vmax, FXa generation assay [12]: > 3; Vmax, FXa generation assay [13]: > 3; Vmax, FXa generation assay [14]: > 2; Vmax, FXa generation assay; (++) means 1-2 [15]: (++); Vmax, FXa generation assay; (++) means 1-2 (RRAPGKLTCLASYCWLFWTGiA [16]): (++); Vmax, FXa generation assay; (++) means 1-2 (RRAPGKLTCLASYCWLFwTGIA [17]): (++); Vmax, FXa generation assay; (++) means 1-2 (RRApGKLTCLASYCWLFWTGIA [18]): (++); Vmax, FXa generation assay (RRKPGKLQCLASYCWLFWTGIA): > 2; Vmax, FXa generation assay [19]: > 2; Vmax, FXa generation assay [20]: > 2; Vmax, FXa generation assay; (++) means 1-2 [21]: (++); Vmax, FXa generation assay [22]: > 0.3; Vmax, FXa generation assay; (++) means 1-2 [23]: (++); Vmax, FXa generation assay with hFIXa (compound 20): > 2; Vmax (mOD/min min), with phospholipids (compound 2): 4.22 mOD/min min; Vmax (mOD/min min), without phospholipids (compound 2): 3.05 mOD/min min; Vmax, FXa generation assay (compound 2): > 3; Vmax, FXa generation assay with hFIXa (compound 2): > 3; KM (nM) of hFIXa for FX (compound 4): 11 nM; Vmax, FXa generation assay with hFIXa (compound 4): > 2; kcat (min^-1) of hFIXa for FX, compound at 1 µM (compound 4): 0.0171 min⁻¹; Δ KM (Km compound/Km buffer) (compound 4): 0.14
